From patent US20130243775A1

Target: interleukin-4 receptor (IL-4R) (UniProt P24394)
Assay: cell-based or functional assay

UniProt P24394, sequence (P24394 26-825 limits assumed): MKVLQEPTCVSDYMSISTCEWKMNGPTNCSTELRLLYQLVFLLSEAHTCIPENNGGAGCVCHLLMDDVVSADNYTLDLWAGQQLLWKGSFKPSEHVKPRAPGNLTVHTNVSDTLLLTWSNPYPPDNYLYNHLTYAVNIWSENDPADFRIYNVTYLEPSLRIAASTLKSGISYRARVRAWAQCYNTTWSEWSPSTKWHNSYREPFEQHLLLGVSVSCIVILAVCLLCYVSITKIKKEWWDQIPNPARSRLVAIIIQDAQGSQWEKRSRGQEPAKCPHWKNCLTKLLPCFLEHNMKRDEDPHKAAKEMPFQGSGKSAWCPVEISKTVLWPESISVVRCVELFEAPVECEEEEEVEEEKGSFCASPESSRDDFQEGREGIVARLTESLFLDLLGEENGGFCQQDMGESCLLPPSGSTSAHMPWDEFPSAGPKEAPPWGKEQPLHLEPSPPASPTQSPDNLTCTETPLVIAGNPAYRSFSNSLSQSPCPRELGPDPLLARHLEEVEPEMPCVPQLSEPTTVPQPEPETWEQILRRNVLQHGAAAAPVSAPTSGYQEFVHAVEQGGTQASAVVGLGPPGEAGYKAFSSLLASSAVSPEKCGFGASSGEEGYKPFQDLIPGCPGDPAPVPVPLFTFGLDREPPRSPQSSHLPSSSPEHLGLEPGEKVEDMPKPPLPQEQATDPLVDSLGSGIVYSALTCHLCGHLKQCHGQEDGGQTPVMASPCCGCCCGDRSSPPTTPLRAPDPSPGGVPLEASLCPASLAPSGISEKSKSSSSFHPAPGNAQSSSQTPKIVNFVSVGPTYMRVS

attenuation of IL-4R activity relative to the control constructs (STAT6-luciferase reporter): > 10%
B1: anti-IL-4R:anti-CD63 conjugate (streptavidin-conjugated anti-IL-4R antibody combined 1:1 with biotinylated anti-CD63 antibody MEM-259) (protein, part only; not given: anti-CD63 antibody, constant regions, part only)
VH: EVQLVESGGGVVQPGRSLRLSCVASGFTFSDYGMHWVRQAPGKGLEWVAVIWYDGSIKYFRDSVKGRFTISRDNSKNTLYLQMNSLRVEDTAHYYCAKESSSWYFYHGLDVWGQGTMVTVSS
VL: EIVMTQSPLSLPVSPGEPASISCRSNQSLLHSNGNNYLAWYLQKPGQSPHLLIYLGSNRASGVPDRFSGSGSGTDFTLKISRVEAGDVGTYFCMQSLQAPPFTFGPGTKVEIKR
modifications: antibody is streptavidin-conjugated (site not stated)
